Molecular target: nascent, unphosphorylated PKC species (PDK1 binding, Fig. S9C) (UniProt P68403)

- fold binding relative to the phosphorylated form: 2 fold
B1: PDK1 (enzyme)
chain: MARTTSQLYDAVPIQSSVVLCSCPSPSMVRTQTESSTPPGIPGGSRQGPAMDGTAAEPRPGAGSLQHAQPPPQPRKKRPEDFKFGKILGEGSFSTVVLARELATSREYAIKILEKRHIIKENKVPYVTRERDVMSRLDHPFFVKLYFTFQDDEKLYFGLSYAKNGELLKYIRKIGSFDETCTRFYTAEIVSALEYLHGKGIIHRDLKPENILLNEDMHIQITDFGTAKVLSPESKQARANSFVGTAQYVSPELLTEKSACKSSDLWALGCIIYQLVAGLPPFRAGNEYLIFQKIIKLEYDFPEKFFPKARDLVEKLLVLDATKRLGCEEMEGYGPLKAHPFFESVTWENLHQQTPPKLTAYLPAMSEDDEDCYGNYDNLLSQFGCMQVSSSSSSHSLSASDTGLPQRSGSNIEQYIHDLDSNSFELDLQFSEDEKRLLLEKQAGGNPWHQFVENNLILKMGPVDKRKGLFARRRQLLLTEGPHLYYVDPVNKVLKGEIPWSQELRPEAKNFKTFFVHTPNRTYYLMDPSGNAHKWCRKIQEVWRQRYQSHPDAAVQ
